These results are taken from paper PMC10663500, “High-throughput analysis system of interaction kinetics for data-driven antibody design” (Scientific Reports, 2023).

Where a chain is given by its changes, count along the chain named.

B1: toripalimab Fab (wild-type) (Fab, V domains shown)
VH: QGQLVQSGAEVKKPGASVKVSCKASGYTFTDYEMHWVRQAPIHGLEWIGVIESETGGTAYNQKFKGRVTITADKSTSTAYMELSSLRSEDTAVYYCAREGITTVATTYYWYFDVWGQGTTVTVSS
VL: DVVMTQSPLSLPVTLGQPASISCRSSQSIVHSNGNTYLEWYLQKPGQSPQLLIYKVSNRFSGVPDRFSGSGSGTDFTLKISRVEAEDVGVYYCFQGSHVPLTFGQGTKLEIK
notes: toripalimab Fab heavy chain (VH-CH1); toripalimab Fab light chain (VL-CL); Residue numbers count consecutively from residue 1 of each chain; also called anti-hPD-1 antibody toripalimab; source: Brevibacillus, secreted into culture supernatant, ammonium sulfate precipitate (not further purified); not shown: 6xHis, C-terminal, kept; 6xHN, C-terminal, kept
B2: toripalimab Fab L.P100H (Fab, V domains shown)
VH: B1 VH
VL: B1 VL with P100H
notes: as the heavy chain of m1; as the light chain of m1, with the stated change; source: Brevibacillus, secreted into culture supernatant, ammonium sulfate precipitate (not further purified); not shown: 6xHis, C-terminal, kept; 6xHN, C-terminal, kept
B3: toripalimab Fab L.V99G (Fab, V domains shown)
VH: B1 VH
VL: B1 VL with V99G
notes: as for B2
B4: toripalimab Fab L.L101V (Fab, V domains shown)
VH: B1 VH
VL: B1 VL with L101V
notes: as the heavy chain of Sm3; light chain of Sm3 with this change; numbers count from the chain's first residue; source: Brevibacillus, culture supernatant (ammonium sulfate precipitate); not shown: 6xHis, C-terminal, kept; 6xHN, C-terminal, kept
B5: toripalimab Fab L.L101T (Fab, V domains shown)
VH: B1 VH
VL: B1 VL with L101T
notes: as for B4
B6: toripalimab Fab L.L101N (Fab, V domains shown)
VH: B1 VH
VL: B1 VL with L101N
notes: as for B4
B7: toripalimab Fab L.L101Y (Fab, V domains shown)
VH: B1 VH
VL: B1 VL with L101Y
notes: as for B4
B8: toripalimab Fab L.L101Q (Fab, V domains shown)
VH: B1 VH
VL: B1 VL with L101Q
notes: as for B4
B9: toripalimab Fab L.L101M (Fab, V domains shown)
VH: B1 VH
VL: B1 VL with L101M
notes: as for B4
B10: toripalimab Fab L.T102Y (Fab, V domains shown)
VH: B1 VH
VL: B1 VL with T102Y
notes: as for B4
B11: toripalimab Fab L.L101K (Fab, V domains shown)
VH: B1 VH
VL: B1 VL with L101K
notes: as for B4
B12: toripalimab Fab L.T102A (Fab, V domains shown)
VH: B1 VH
VL: B1 VL with T102A
notes: as for B4
B13: toripalimab Fab L.L101S (Fab, V domains shown)
VH: B1 VH
VL: B1 VL with L101S
notes: as for B4
B14: toripalimab Fab L.L101I (Fab, V domains shown)
VH: B1 VH
VL: B1 VL with L101I
notes: as for B4
B15: toripalimab Fab L.L101G (Fab, V domains shown)
VH: B1 VH
VL: B1 VL with L101G
notes: as for B4
B16: toripalimab Fab H.E54A (Fab, V domains shown)
VH: B1 VH with E54A
VL: B1 VL
notes: heavy chain of Sm3 with this change; numbers count from the chain's first residue; as the light chain of Sm3; source: Brevibacillus, culture supernatant (ammonium sulfate precipitate); not shown: 6xHis, C-terminal, kept; 6xHN, C-terminal, kept

T3 sequence (Q15116 24-167 C93S): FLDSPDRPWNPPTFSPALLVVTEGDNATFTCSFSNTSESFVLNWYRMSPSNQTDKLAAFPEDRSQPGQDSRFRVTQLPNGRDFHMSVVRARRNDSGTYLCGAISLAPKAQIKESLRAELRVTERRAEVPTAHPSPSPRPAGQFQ

One assay deals with T1, human programmed cell death protein 1 C93S (aa 24-167) (Homo sapiens, UniProt Q15116, C93S).
T1 construct: residues of the TEV site may be left after cleavage; also called hPD-1; human PD-1; source: Expi293F, transfected, purified (Protein A, TEV cleavage of Fc, Protein A + Ni-Sepharose, SEC; monomer fractions)
T1 sequence (Q15116 24-167 C93S): as above
Nature of the assay: SPR; BreviA on Carterra LSA: Fab from ammonium sulfate precipitate of Brevibacillus supernatant immobilised on NiHC200M sensor; hPD-1 (1-1024 nM) or mPD-1-Fc (4-1024 nM) as analyte, fourfold dilution series, no regeneration; HBS-EP pH 7.4, 25 °C; medians of spots. The note with it: one partner purified. In general terms: In SPR one partner is held on a chip, and binding of the other changes the refractive index at the surface.
In general, koff refers to the first-order rate constant of dissociation. Higher therefore signals a short-lived complex. On to B1, for which the koff is under 1e-05 s⁻¹.

The next assay deals with T2, mouse programmed cell death protein 1 C60S (aa 25-167) Fc fusion protein (Mus musculus, UniProt Q02242, stabilised).
T2 construct: the Fc was not cleaved; also called mPD-1-Fc; mPD-1 Fc fusion protein; source: Expi293F, transfected, purified (Protein A, SEC; dimeric fraction)
Described as above. The conditions noted are these: one partner purified.
Take B2: the “fold increase in affinity against the wild type” value was over 100 fold.

As to B3, the “fold increase in affinity against the wild type” value was over 100 fold.

A further assay concerns the target T3, human programmed cell death protein 1 (hPD-1) C93S (aa 24-167) (Homo sapiens, UniProt Q15116, C93S).
T3 construct: made as a fusion with a TEV site and human Fc; the Fc was cut off with TEV protease; source: Expi293F, purified (Protein A, TEV cleavage of Fc, SEC; monomer fractions); not shown: Fc (human), C-terminal, cleaved
Nature of the assay: SPR; Carterra LSA; Fab from the ammonium sulfate precipitate of the culture supernatant immobilised on a NiHC200M chip; hPD-1 (1-1024 nM) or mPD-1-Fc (4-1024 nM) as analyte, fourfold dilution series, no regeneration; HBS-EP pH 7.4, 25 °C; medians over the spots of a construct, KD = koff/kon. The note with it: one partner purified. In a few lines: (§1)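 Fabs, ammonium sulfate-precipitated from Brevibacillus supernatants and redissolved in HBS-EP, were captured in duplicate on a NiHC200M chip on a Carterra LSA at 25 °C. Fourfold series of human PD-1 (1–1024 nM) or mouse PD-1-Fc (4–1024 nM) were run without regeneration, with association for 10 min and dissociation for 5 min. Rates were fitted with the kdka model, choosing the better of slow- or fast-dissociation settings, and unconfirmed binders were given kon 10^3 […] and koff 10^−2 s^−1. The dissociation constant KD is koff/kon based on per-construct medians.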
By Kd is commonly meant the free concentration of one partner at which half of the binding sites on the other are occupied at equilibrium, for simple one-to-one binding. High values mean weaker binding, low ones tighter binding. By kon is commonly meant a measure of how fast the partners come together. A high value points to faster complex formation. Consider B4, for which binding was characterised by a dissociation constant (Kd) of 2.41 nM, the koff was 1.35e-05 s⁻¹ and the kon worked out at 5600 M⁻¹ s⁻¹.

Consider B5, for which the Kd turned out to be 5.05 nM, the off-rate (koff) came to 3.03e-05 s⁻¹ and the on-rate constant (kon) worked out at 6000 M⁻¹ s⁻¹.

Molecule B6 yielded a Kd of under 1.23 nM, a koff of under 1e-05 s⁻¹ and a kon of 8160 M⁻¹ s⁻¹.

The molecule B7 came in with a Kd of under 1.18 nM, a koff of under 1e-05 s⁻¹ and a kon of 8500 M⁻¹ s⁻¹.

Regarding B8, binding was put at a Kd of 2.78 nM, the koff was 2.5e-05 s⁻¹ and the kon amounted to 8990 M⁻¹ s⁻¹.

For B9, the Kd was under 1.08 nM, the koff is under 1e-05 s⁻¹ and the kon amounted to 9290 M⁻¹ s⁻¹.

As to B10, the Kd is under 0.441 nM, the koff was under 1e-05 s⁻¹ and the on-rate constant (kon) came out at 22700 M⁻¹ s⁻¹.

B11 came in with a Kd of 492 nM, a koff of 0.00276 s⁻¹ and a kon of 5600 M⁻¹ s⁻¹.

Regarding B12, the Kd was under 0.809 nM, the koff was under 1e-05 s⁻¹ and the kon worked out at 12400 M⁻¹ s⁻¹.

On to B13, for which binding was characterised by a dissociation constant (Kd) of 4.13 nM, the off-rate constant (koff) amounted to 2.42e-05 s⁻¹ and the on-rate constant (kon) is 5870 M⁻¹ s⁻¹.

Molecule B14 came in with a Kd of under 1.55 nM, a koff of under 1e-05 s⁻¹ and a kon of 6430 M⁻¹ s⁻¹.

On to B15, for which the dissociation constant (Kd) is under 1.95 nM, the koff was under 1e-05 s⁻¹ and the kon amounted to 5120 M⁻¹ s⁻¹.

In turn, B16 returned a Kd of 1.23 nM, a koff of 2.52e-05 s⁻¹ and a kon of 20400 M⁻¹ s⁻¹.

In the next assay the target is T4, mouse programmed cell death protein 1 Fc fusion protein (mPD-1-Fc), mPD-1 C60S (aa 25-167) (Mus musculus, UniProt Q02242, stabilised).
T4 construct: not cleaved; source: Expi293F, purified (Protein A, SEC; dimeric fraction); not shown: Fc (human), C-terminal, kept
The assay is described as above. The note with it: one partner purified. Put shortly: as §1
In turn, B4 returned a Kd of 90.5 nM, a koff of 0.00146 s⁻¹ and a kon of 16100 M⁻¹ s⁻¹.

In turn, B5 registered a Kd of 116 nM, a koff of 0.00235 s⁻¹ and a kon of 20400 M⁻¹ s⁻¹.

In turn, B6 returned a dissociation constant Kd of 134 nM, a koff of 0.00447 s⁻¹ and a kon of 33300 M⁻¹ s⁻¹.

B7: the Kd came to 125 nM, the koff turned out to be 0.00356 s⁻¹ and the kon was 28400 M⁻¹ s⁻¹.

The molecule B8 had a Kd of 265 nM, a koff of 0.0143 s⁻¹ and a kon of 54000 M⁻¹ s⁻¹.

Consider B9, for which the Kd was 24.5 nM, the koff is 0.000673 s⁻¹ and the kon came out at 27500 M⁻¹ s⁻¹.

Regarding B10, binding was put at a Kd of 78.4 nM, the koff worked out at 0.00282 s⁻¹ and the kon came out at 36000 M⁻¹ s⁻¹.

Take B11: the Kd is 606 nM, the koff is 0.0212 s⁻¹ and the kon is 35000 M⁻¹ s⁻¹.

Molecule B12 gave a Kd of 115 nM, a koff of 0.00395 s⁻¹ and a kon of 34200 M⁻¹ s⁻¹.

The molecule B13 had a Kd of 48.2 nM, a koff of 0.000659 s⁻¹ and a kon of 13700 M⁻¹ s⁻¹.

As for B14, the affinity, expressed as Kd, was 34.3 nM; the koff stood at 0.00056 s⁻¹; the kon was determined as 16300 M⁻¹ s⁻¹.

B15 registered a Kd of 40.1 nM, a koff of 0.000405 s⁻¹ and a kon of 10100 M⁻¹ s⁻¹.

With B16, the dissociation constant Kd turned out to be 202 nM, the koff is 0.00772 s⁻¹ and the kon was determined as 38300 M⁻¹ s⁻¹.
